Test results reported in patent US20150266957A1.

B1: human prokineticin 1 (ligand, UniProt P58294 20-105, looked up)
chain: AVITGACERDVQCGAGTCCAISLWLRGLRMCTPLGREGEECHPGSHKVPFFRKRKHHTCPCLPNLLCSRFPDGRYRCSMDLKNINF
B2: human prokineticin 2 (ligand, UniProt Q9HC23-2 28-108, looked up)
chain: AVITGACDKDSQCGGGMCCAVSIWVKSIRICTPMGKLGDSCHPLTRKVPFFGRRMHHTCPCLPGLACLRTSFNRFICLAQK

Key:
Experiment in all cases: cell-based or functional assay
[1] = biological target: mouse PROKR1 (mouse (Mus musculus)) (UniProt Q9JKL1)
mouse PROKR1 (mouse (Mus musculus)), sequence (Q9JKL1 whole entry): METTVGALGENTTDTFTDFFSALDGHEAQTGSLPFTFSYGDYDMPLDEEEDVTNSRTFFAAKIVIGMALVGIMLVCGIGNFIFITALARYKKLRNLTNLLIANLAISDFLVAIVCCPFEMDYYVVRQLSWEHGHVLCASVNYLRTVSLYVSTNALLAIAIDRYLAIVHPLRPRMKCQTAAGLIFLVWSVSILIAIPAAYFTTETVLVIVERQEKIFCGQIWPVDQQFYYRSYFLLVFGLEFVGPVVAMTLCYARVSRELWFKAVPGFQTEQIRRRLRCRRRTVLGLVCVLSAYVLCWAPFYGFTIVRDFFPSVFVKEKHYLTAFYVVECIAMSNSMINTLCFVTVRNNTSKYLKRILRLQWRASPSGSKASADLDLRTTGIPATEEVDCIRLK

[2] = biological target: cynomolgus monkey PROKR1 (cynomolgus monkey (Macaca fascicularis)) (UniProt G7PMD0)
cynomolgus monkey PROKR1 (cynomolgus monkey (Macaca fascicularis)), sequence (G7PMD0 entry or part of it): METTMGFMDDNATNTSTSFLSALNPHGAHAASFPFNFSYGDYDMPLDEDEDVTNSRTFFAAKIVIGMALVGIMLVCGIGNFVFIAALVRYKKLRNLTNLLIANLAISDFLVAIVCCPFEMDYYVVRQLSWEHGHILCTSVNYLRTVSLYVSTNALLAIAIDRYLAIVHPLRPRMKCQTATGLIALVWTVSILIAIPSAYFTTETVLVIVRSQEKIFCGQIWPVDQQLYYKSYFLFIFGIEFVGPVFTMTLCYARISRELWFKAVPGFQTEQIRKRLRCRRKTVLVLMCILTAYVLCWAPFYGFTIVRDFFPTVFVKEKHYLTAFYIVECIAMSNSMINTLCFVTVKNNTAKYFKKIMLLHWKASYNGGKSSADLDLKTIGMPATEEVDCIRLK

[3] = biological target: rat PROKR1 (rat (Rattus norvegicus)) (UniProt Q8R416)
rat PROKR1 (rat (Rattus norvegicus)), sequence (Q8R416 whole entry): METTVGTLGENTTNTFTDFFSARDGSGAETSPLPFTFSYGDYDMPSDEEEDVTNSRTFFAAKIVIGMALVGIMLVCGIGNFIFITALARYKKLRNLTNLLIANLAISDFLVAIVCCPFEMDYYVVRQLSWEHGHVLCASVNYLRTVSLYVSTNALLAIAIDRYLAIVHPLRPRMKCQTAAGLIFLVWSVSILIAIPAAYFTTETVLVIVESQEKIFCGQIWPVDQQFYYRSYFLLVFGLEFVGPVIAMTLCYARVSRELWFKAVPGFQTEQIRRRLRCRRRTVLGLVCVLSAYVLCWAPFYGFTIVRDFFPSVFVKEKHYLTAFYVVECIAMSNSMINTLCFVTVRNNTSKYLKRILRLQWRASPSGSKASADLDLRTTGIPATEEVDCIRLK

human PROKR1 (human) = human PROKR1 (human) (UniProt Q8TCW9)
human PROKR1 (human), sequence (Q8TCW9 whole entry): as the sequence (G7PMD0 entry or part of it) above, with A22V, A31T, G40S, V82I, I135V, R210K, F246V, N348D, A350V counted along it

Binder	EC50, calcium flux, 293/mPROKR1, no antibody [1]	Ligand EC50 (nM), calcium flux, CHO/mPROKR1 (induced) [1]	Ligand EC50 (nM), calcium flux, CHO/mPROKR1 (non-induced) [1]	EC50 (nM), calcium mobilization, 293/mfPROKR1, Experiment 1 [2]	EC50 (nM), calcium mobilization, 293/mfPROKR1, Experiment 3 [2]	EC50, calcium flux, 293/rPROKR1, no antibody [3]	EC50 (nM), calcium mobilization, 293/hPROKR1, Experiment 1 (human PROKR1 (human))	EC50 (nM), calcium mobilization, 293/hPROKR1, Experiment 2 (human PROKR1 (human))	EC50 (nM), calcium mobilization, 293/hPROKR1, Experiment 3 (human PROKR1 (human))
B1	0.9 nM	1.5 nM	8.3 nM	69 nM	5 nM	0.7 nM	6.2 nM	14.3 nM	2.2 nM
B2		9.6 nM	0.8 nM		0.1 nM		30.7 nM		0.6 nM
